Reference: PMC10540216, “Activity Guided Azide-methyllysine Photo-trapping for Substrate Profiling of Lysine Demethylases” (Journal of the American Chemical Society, 2023)
Where no end group is shown, it is not given here.

Target: T1, CBX1 chromodomain
T1 construct: Chromodomain of Chromobox protein 1 (CBX1); Expression, purification and construct limits are in the Supporting Information; also called Chromobox protein 1
Experiment: ITC; CBX1 chromodomain and eIF4A3 K374me0/1/2/3 peptides
Conditions: both partners purified

GRSGRYGRKGVAINFVK (also: dimethyllysine at K374) [eIF4A3-K374me2 peptide 23] showed a Kd of 95.2 ± 1.4 µM.

GRSGRYGRKGVAINFVK (also: trimethyllysine at K374) [eIF4A3-K374me3 peptide 13] gave a Kd of 23.2 ± 2 µM.
